This series can be described thus: soluble on expression in E. coli; label from the status in PepcDB or PDB records.
With “MKSMEIDVEHIFDCLDRYGKGELTEKQLTKGVTDDEKMFLIMHQGLLGGNTDSEEEFNVLDWLGEEESFFMIVEINENLCRKAESILEEIGVEMPDVIESFLKQLVETKQLPVVVND”, the “soluble on expression in E. coli” value is reported as “not soluble”.
Turning to “MKSNTSQQRPYQEVGAMIRDLIVQTPYRPGERLPPEREIAERLNVTRTVVREALIMLEIKGLVEVRRGAGIYVLDSADNNEMEGADVNHCNDAGPFELLQARQLLESNIAEFAALQATREDIIKMRQALQLEERELASSAPGGSESGDMQFHLAIAEATHNSMLVELFRQSWQWRENNPMWLQLHSHLGDTLYRKEWLVDHKQILAALIKKDARAAKLAMWQHLENVKQRLLEFSNVDDIYFDGYLFESWPLDNVDA”, the “soluble on expression in E. coli” value is “not soluble”.
In the case of “MKSPAPSRPQKMALIPACIFLCFAALSVQAEETPVTPQPPDILLGPLFNDVQNAKLFPDQKTFADAVPNSDPLMILADYRMQQNQSGFDLRHFVNVNFTLPKEGEKYVPPEGQSLREHIDGLWPVLTRSTENTEKWDSLLPLPEPYVVPGGRFREVYYWDSYFTMLGLAESGHWDKVADMVANFAHEIDTYGHIPNGNRSYYLSRSQPPFFALMVELLAQHEGDAALKQYLPQMQKEYAYWMDGVENLQAGQQEKRVVKLQDGTLLNRYWDDRDTPRPESWVEDIATAKSNPNRPATEIYRDLRSAAASGWDFSSRWMDNPQQLNTLRTTSIVPVDLNSLMFKMEKILARASKAAGDNAMANQYETLANARQKGIEKYLWNDQQGWYADYDLKSHKVRNQLTAAALFPLYVNAAAKDRANKMATATKTHLLQPGGLNTTSVKSGQQWDAPNGWAPLQWVATEGLQNYGQKEVAMDISWHFLTNVQHTYDREKKLVEKYDVSTTGTGGGGGEYPLQDGFGWTNGVTLKMLDLICPKEQPCDNVPATRPTVKSATTQPSTKEAQPTPLEHHHHHH”, the “soluble on expression in E. coli” value was “soluble”.
Turning to “MKSPIVSANLVTRDNDKIAEKTGNIYESLVVISRRARQISIKIKEELNSKLAEFASKEDNLEEIFENREQIEISKYYERMPKPSTLATEEFLEDKVMFRHTGIASATPRKEDEK”, the “soluble on expression in E. coli” value was “not soluble”.
For the sequence “MKSQPYTASSVTSTSTTHHPWMPISLREPPSKFQKLSTSDAAPLHNVCSSLKMKSTKPSRKRPSPKESDLPPLPSISTLFDSGSSSHSSSSSSNSSYGSYCQFSPEGSYTMYHWPMNYIPYVSPDVTITATTSTSTNAMASPDPIMLSSPPKQPTIEHTPINQPLFIQTADYPYDYSAPDPTGGYPSSATINANQLLLRPVPNGHV”, the “soluble on expression in E. coli” value is reported as “not soluble”.
For “MKSRFRFHLCCVCMLALAVAGCKVKRPDDVISESKMENLLYDYHLAKSMGDNLPYNENYKKTLYLDAVFKKYGTTEAVFDSSLVWYTRNTEVLSKIYEKVSKRLKAQQNEINHLIALRDNKPKMSEPGDSIDVWPWKCFIRLTGEMMNDQYAFVLPVDTNYKDRDTLVWEVRYRFLEPMLADSLRAVTMAMQVIYEKDTLNHLETITDPGVHQIRLYADTLGVMKEIKGFIYYPGVQGEKAGALLADRFALTRYHCSDSLSVAERDSINQLEALKTDSLKKVSDQKDTKISKDSLRKVDDLKDNQRISPEEMNRRRTVTPEKKPEQIEVEQHIQQEKIEQRRERQLNQRRNQQRRQSPSR”, the “soluble on expression in E. coli” value was “not soluble”.
As to “MKTENAKTNQTLVENSLNTQLSNWFLLYSKLHRFHWYVKGPHFFTLHEKFEELYDHAAETVDTIAERLLAIGGQPVATVKEYTEHASITDGGNETSASEMVQALVNDYKQISSESKFVIGLAEENQDNATADLFVGLIEEVEKQVWMLSSYLG”, the “soluble on expression in E. coli” value was “soluble”.
Consider “MKTFSDRWRQLDWDDIRLRINGKTAADVERALNASQLTRDDMMALLSPAASGYLEQLAQRAQRLTRQRFGNTVSFYVPLYLSNLCANDCTYCGFSMSNRIKRKTLDEADIARESAAIREMGFEHLLLVTGEHQAKVGMDYFRRHLPALREQFSSLQMEVQPLAETEYAELKQLGLDGVMVYQETYHEATYARHHLKGKKQDFFWRLETPDRLGRAGIDKIGLGALIGLSDNWRVDSYMVAEHLLWLQQHYWQSRYSVSFPRLRPCTGGIEPASIMDERQLVQTICAFRLLAPEIELSLSTRESPWFRDRVIPLAINNVSAFSKTQPGGYADNHPELEQFSPHDDRRPEAVAAALTAQGLQPVWKDWDSYLGRASQRL”, for which the “soluble on expression in E. coli” value was “not soluble”.
“MKTIFSGIQPSGVITIGNYIGALRQFVELQHEYNCYFCIVDQHAITVWQDPHELRQNIRRLAALYLAVGIDPTQATLFIQSEVPAHAQAAWMLQCIVYIGELERMTQFKEKSAGKEAVSAGLLTYPPLMAADILLYNTDIVPVGEDQKQHIELTRDLAERFNKRYGELFTIPEARIPKVGARIMSLVDPTKKMSKSDPNPKAYITLLDDAKTIEKKIKSAVTDSEGTIRYDKEAKPGISNLLNIYSTLSGQSIEELERQYEGKGYGVFKADLAQVVIETLRPIQERYHHWMESEELDRVLDEGAEKANRVASEMVRKMEQAMGLGRRR”: the “soluble on expression in E. coli” value is “soluble”.
Take “MKTINVFHYDAFTNKPNMGNPAGIVLDADGLTEEEMQRIAEKVGFNETSFVLSSEVADIRMRYFTPGYEMDLCGHGTVGTIYALRERGLLEEKASLTIETKAGILPIQIGVNENGETFIKMRQTAPQFKDFAGSKEELAHSIGLEVNDLDVSLPIVYGSTGNWTVIVPVKNLDVCERMKPNNEVFPSVLKEIPNASIHPICLETYDEKVHMHGRHFSSAYAGTIEDPVTGTASGVMGAYYATYVEKDFDHEMELIVEQGQEIHKDGRVTVYVTKDVESEKLQIDIAGTAVYVKEFEVLI”: the “soluble on expression in E. coli” value is “soluble”.
Take “MKTLPPILSNIIEKVTNTEPANVEDKLPMNILVLGSDEKQGGRSDTIMLVHIQKDFQPIVISIPRDTRVKVEGIKGYSKINAAYAYGKSKLAVKTVEDILGIKIDKYVVVNYEAVEKIVDLVGGVDVEVPFHLYYVDTTPGKELYINIPAGLQHLDGKKAVEFLRWRHNSNGKEYGRGGDLGRIEMQRKLLYALIEKMLKPQNIVRLPLIVQTVSKYTDHNFTKNEIMWFIQNVGKFNTQNIMMTILPGYPKYIDRVSYYILNEEKCRALIDDLNEPEVLKDSMKIKILSKSFDDKATQLKNDLESKGYSNVNLGRVSKLESSEVELKRVNRKYLELLKNDIDLSTYQVVYSPDYSDKFDVYIKVKLEHHHHHH”: the “soluble on expression in E. coli” value is “soluble”.
As to “MKTNVIIDGDACPVVNSVIELTKGTGIFVTILRSFSHFSQQIQPEHVKIVYVDDGPDAVDYKIVELASNNDIVITQDYGLASLLIDKVHTVMHHKGNIYHSNNIQSLLDQRYLNAQIRRRGLEHHHHHH”, the “soluble on expression in E. coli” value is listed as “not soluble”.
“MKTYSEARARLRWYQGRYIDFDGWYGYQCADLAVDYIYWLLEIRMWGNAKDAINNDFKNMATVYENTPSFVPQIGDVAVFTKGIYKQYGHIGLVFNGGNTNQFLILEQNYDGNANTPAKLRWDNYYGCTHFIRPKYKSEGLMNKITNKVKPPAQKAVGKSASKITVGSKAPYNLKWSKGAYFNAKIDGLGATSATRYGDNRTNYRFDVGQAVYAPGTLIYVFEIIDGWCRIYWNNHNEWIWHERLIVKEVFLEHHHHHH”: the “soluble on expression in E. coli” value is reported as “not soluble”.
Take “MKVDLNSDLGESFGRYKLGLDDEVMKYITSANVACGWHAGDPLVMRKTVRLAKKNNVQVGAHPGYPDLMGFGRRYMKLTPEEARNYILYQIGALYAFVKAEGLELQHVKPHGALYNAMVKEEDLARAVIEGILDFDKRLIVVTLAGSRVVEIAREMGARVAQEGFADRAYNPDGTLVPRSRPGAVIEDKEEIAERVISMVKDGGIRAINGEWIELEVDTICVHGDNPKAVEITAYIRRRLEEEGVKVLPMGDFIK”: the “soluble on expression in E. coli” value is given as “soluble”.
Turning to “MKVERGDVIRLHYTGRVKETGQIFDTTYEEVAKEAGIYNPKGIYGPVPIIVGAGHVISGLDKRLVGLEVGKKYTLEVPPEEGFGLRDPKLIKVFTMGQFRKQGIVPFPGLEVEVTTDNGRKMKGRVITVSGGRVRVDFNHPLAGKTLIYEVEIVEKIEDPIEKIKALIELRLPMIDRDKVIIEVGEKDVKVNFGEQDVDPKTLILGEILLESDIKFLGYEKVEFKPSVEELLRPKQEEPVEEEKKEEQEESEEAQSS”, the “soluble on expression in E. coli” value is on record as “soluble”.
“MKVGVFTVLYQQLPLEDMLDKVAAMGIEAVELGTGNYPGNAHCDPDALLDQPEKIKALKKAVADRGLVISALSCHGNPLHPDKTFAKQSHDTWRKTVRLAEQLEVPVINAFSGCPGDHPGAKYPNWVTCSWPPDYLEILKWQWEEVVIPYWREEAAFAKEHGITQIAFEMHPGFVVYNPETLLKLREHVGEAIGANFDPSHLLWQGIDPVEAIKLLGREKAIFHVHAKDTYLDEANIRKNGVLDTKHYSQILDRSWVFRTVGYGQSEKMWRDIVSALRAVGYDYVLSIEHEDMLASIDEGLSKAVALLKKVLFKEELPEMWWA”: the “soluble on expression in E. coli” value was “not soluble”.
Under “MKVISNAEFGGERPLFESHDLRLENVIIRAGESAIKECSNIEAVDCRFEGNYPFWHVHGFVIDRCFFDVGGRSALWYSDNLKMTNTRIDAPKMFREMHDIEIENVEIKDADEVFWRCKNLDIKNLKLHGGTYPFMFSSNIRIDGLESDSKYVFQYVKNVELRNAKITTKDAFWEVENVTIYDSELNGEYLGWHSHNLRLVNCHITGEQPLCYAHDLVLENCTFGPDCDRAFEYSSVQATIKGAIGGVKNPRTGCITAESYGEIILDENIKAPADCKLKLWDEKTCFTD” stands “soluble”; under “MKVLDSRDFAKVKAIAIERASYRNIGALAVYIGSMTGMRISEVLALTWPDIDTKLCVIHVTRSWDHLYGTGFKPTKTDSSVRDIEISPSVIELLNKIHQEQAASYLRTGYRDEDQMIMRDPRHNVITDSACNKALHVIQNKAGIPEDKQITFHGLRHSHVSYLISKGVDIYYISKRLGHSDVTITMKVYGHLLEHHHHHH”, “soluble”; under “MKVLFVCSGGMSSAIVVNALKKEAEKKGVNMEVHAIGTSEVEEEVKNGWDVVMVAPQVRHRFDSVKKFAEEESIPCGIIPPQAYTPLGGPTLLKTVNDLIR”, “not soluble”.
For “MKVLKCGVMLLSILFVSQLHVYAEENRWTWPVEGQISDYFGTRHGKHYGIDVAAPIGTPVVAIQDGKVTRSYYSSSYGNVVFIKHGEYEAVYAHLNKRYVNQGDYISKGEKIGEVGNTGESRGAHLHLELHQGRWTMAKKNAMNPLLVLSEQRNEVVSSSLYVVQKGDTLVSIARKFSMTLKEIKEKNGLQQELIYPNQQLYVK”, the “soluble on expression in E. coli” value is given as “not soluble”.
Take “MKVNPDFFPLTQMAQRFVDQLAQCRRLGLTVLEASEHHVLIELPYSTELIGYPDTGVIHGGVITTLMDTACGSAVVSAIFQKYQSLEISPTLDLRVDYMKPAQPHKSVYGFAECYKLSSNIAFTRAIAYQDSIDDPIAHAVGSFMRISPEMVGDAFRQALIGLEHHHHHH”: the “soluble on expression in E. coli” value is listed as “soluble”.
On to “MKVSEKTYLSIEEIISLPTVSSTNISDDGKNVAFVKRTANWEDNTYRNHVWIYEKDKGKSYPLTTGDIDSIHPLWSPDSKSIAYLSSGGDGDMKNQIFVKSLDDYSKVKITDEKEGISNFKWDPTGKGFYYITQSKECEEIKKRKELYGDFQHVGKEHQNNCLCYIEMEKVIQNDKEEREINGVYQLTGGKDFYIHGFDISDNGKKVVCMATPSLNDHMNGDLYILDVEARELQQMNVDKLLGGSACFSPEGNKICYSASIREKEYYRNHIQESTLEIYDMNTGEVIQPLTNFDSMVMPLQWTAKGILIRWQDKTNYFIGLLAEDGTVETLREKVDGFIMDASITRDGNHITYNKAITNETFEIYLDDKKITNENSLFEGKLKSNREIISWRSSDGLEIEGVLSTPVEFDANKKYPLLVVIHGGPAWASFPIFSNCFNEKYPIEQFVEKGFIVLEPNYRGSSGYGNEFLKANYRKQGLADYDDVISGVDELVEKGMVDKDRVGVMGWSNGGYISAFCSTFSSRFKAISVGGGITNWSTHYVNTDIPYFIRMYLGNTPWNDPDIYKRTSPMTYIKSACTPTLIQHGEKDARIPITNAYELHQGLKDMEVDTELIIFKGMAYSSDQPGVHVAIMKQNLMWFSHYILGESMEDFSTI”, for which the “soluble on expression in E. coli” value was “not soluble”.

Values taken from the DeepSol protein solubility set.
